Assay results from patent publication US20150291677A1.

Target: Mouse FGFR4/β-klotho complex co-expressed in rat L6 myoblast cells (mouse) (UniProt Q03142)
Assay: cell-based or functional assay

FGF19 (fibroblast growth factor 19, reference or wild type sequence), sequence (O95750 23-216 limits assumed): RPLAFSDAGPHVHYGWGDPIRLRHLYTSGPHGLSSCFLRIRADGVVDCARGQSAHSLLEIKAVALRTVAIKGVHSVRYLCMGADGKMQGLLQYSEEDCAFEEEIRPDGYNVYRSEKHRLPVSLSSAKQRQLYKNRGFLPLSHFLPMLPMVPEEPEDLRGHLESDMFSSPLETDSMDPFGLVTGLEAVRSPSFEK
Mouse FGFR4/β-klotho complex co-expressed in rat L6 myoblast cells (mouse), sequence (Q03142 17-799, chain 1 of 2): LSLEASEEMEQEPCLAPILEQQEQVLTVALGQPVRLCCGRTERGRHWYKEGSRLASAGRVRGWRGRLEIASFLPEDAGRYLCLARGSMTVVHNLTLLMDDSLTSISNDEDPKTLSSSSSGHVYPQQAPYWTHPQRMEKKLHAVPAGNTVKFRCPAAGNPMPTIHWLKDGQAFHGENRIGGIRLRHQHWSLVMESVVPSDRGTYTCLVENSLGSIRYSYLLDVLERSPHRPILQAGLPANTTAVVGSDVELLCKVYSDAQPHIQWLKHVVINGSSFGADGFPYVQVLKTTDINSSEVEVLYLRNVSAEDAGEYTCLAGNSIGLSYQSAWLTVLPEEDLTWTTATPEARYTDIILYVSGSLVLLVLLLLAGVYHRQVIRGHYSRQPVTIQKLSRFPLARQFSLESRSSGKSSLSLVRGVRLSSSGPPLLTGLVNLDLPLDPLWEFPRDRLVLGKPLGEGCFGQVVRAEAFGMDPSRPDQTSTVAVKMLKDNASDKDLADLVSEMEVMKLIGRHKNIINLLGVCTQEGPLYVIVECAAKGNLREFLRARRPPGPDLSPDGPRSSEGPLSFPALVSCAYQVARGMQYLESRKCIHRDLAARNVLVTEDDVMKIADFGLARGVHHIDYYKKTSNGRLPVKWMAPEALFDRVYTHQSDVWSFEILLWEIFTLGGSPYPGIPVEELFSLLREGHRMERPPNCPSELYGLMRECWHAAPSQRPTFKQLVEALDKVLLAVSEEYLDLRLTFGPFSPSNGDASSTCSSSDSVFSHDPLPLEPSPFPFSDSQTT
Mouse FGFR4/β-klotho complex co-expressed in rat L6 myoblast cells (mouse), sequence (Q99N32 whole entry, chain 2 of 2, further chain): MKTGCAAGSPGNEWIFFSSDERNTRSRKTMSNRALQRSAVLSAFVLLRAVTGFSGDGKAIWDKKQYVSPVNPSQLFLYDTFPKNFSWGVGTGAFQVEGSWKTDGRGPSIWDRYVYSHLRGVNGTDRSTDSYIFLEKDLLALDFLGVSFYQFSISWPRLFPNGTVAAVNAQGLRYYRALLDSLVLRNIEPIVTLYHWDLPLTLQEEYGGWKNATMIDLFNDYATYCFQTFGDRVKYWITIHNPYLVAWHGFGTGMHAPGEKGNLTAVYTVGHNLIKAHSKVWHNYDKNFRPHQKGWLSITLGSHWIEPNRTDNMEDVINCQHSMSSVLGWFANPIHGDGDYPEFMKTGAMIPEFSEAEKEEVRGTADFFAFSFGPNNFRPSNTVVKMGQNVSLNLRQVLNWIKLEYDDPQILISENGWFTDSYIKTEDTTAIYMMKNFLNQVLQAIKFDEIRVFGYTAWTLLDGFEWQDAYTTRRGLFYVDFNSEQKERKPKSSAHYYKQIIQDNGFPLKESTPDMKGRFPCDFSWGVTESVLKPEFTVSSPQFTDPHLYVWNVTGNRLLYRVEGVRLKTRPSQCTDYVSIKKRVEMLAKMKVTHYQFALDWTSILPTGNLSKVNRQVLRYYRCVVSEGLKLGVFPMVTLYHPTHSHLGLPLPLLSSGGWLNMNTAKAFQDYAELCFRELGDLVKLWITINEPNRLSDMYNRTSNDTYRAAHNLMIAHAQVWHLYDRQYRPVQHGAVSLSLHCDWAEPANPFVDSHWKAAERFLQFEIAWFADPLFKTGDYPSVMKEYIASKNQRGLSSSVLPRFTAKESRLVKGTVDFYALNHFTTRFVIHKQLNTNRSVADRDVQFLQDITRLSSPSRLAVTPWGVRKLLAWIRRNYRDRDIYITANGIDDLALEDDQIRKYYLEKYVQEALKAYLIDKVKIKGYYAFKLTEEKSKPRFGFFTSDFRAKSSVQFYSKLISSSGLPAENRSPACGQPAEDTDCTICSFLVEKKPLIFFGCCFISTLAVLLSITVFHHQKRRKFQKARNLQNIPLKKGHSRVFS

EC50 (pM), ELK luciferase reporter assay in L6 cells: 52.5 pM | Emax (fold potentiation), ELK luciferase reporter assay in L6 cells (fold potentiation): 1.82
Substance: FGF19 (fibroblast growth factor 19, reference or wild type sequence) (from UniProt O95750 23-216) (ligand)
